In patent publication US5622828, “High-affinity oligonucleotide ligands to secretory phospholipase A2 (sPLA2)” (Nexstar Pharmaceuticals, Inc.) one finds Kd data, which are given here for 17 molecules.

Data set [1] deals with T1, secretory phospholipase A2 (sPLA2) (Homo sapiens, UniProt P14555 P14555:21-144).
T1 sequence: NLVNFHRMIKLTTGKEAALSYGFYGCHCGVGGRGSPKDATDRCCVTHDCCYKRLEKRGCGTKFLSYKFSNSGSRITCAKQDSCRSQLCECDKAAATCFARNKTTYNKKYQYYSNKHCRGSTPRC
As to the kind of experiment: filter; biphasic, Kd2 740 nM, mole fraction 0.55; TBSC, 37 C. The following applies: tags: supplied by Eli Lilly. Here is the method: (§1) The nitrocellulose filter partitioning method was used as described in SELEX Patent Applications to determine the affinity of RNA ligands for sPLA_2 and for other promins. Filter discs (nitrocellulose/cellulose acetate mixed matrix, 0.45 µm pore size, Millipore) were placed on a vacuum manifold and washed with 5 ml of TBSC buffer under vacuum. Reaction mixtures, containing ^32P labeled RNA pools and sPLA_2, were incubated in TBSC for 5 minutes at 37° C., filtered, and then immediately washed with 5 ml TBSC. The filters were air-dried and counted in a Beckman liquid scintillation counter without fluor.
(§2) The dissociation constants for representative members of families I–VI, orphan and other ligands were determined by nitrocellulose filter binding experiments and are listed in Table III. Unlike random RNA, all tested ligands from the 2'OH SELEXes bound biphasically.

Data set [2] concerns the target T1, secretory phospholipase A2 (sPLA2). As to the kind of experiment: filter; biphasic, Kd2 300 nM, mole fraction 0.55; TBSC, 37 C. To be noted: tags: supplied by Eli Lilly. Here is the method: as §1, §2
The target is the same in data set [3]. Nature of the data set: filter; biphasic, Kd2 62 nM, mole fraction 0.50; TBSC, 37 C. To be noted: tags: supplied by Eli Lilly. Here is the method:
as §1, §2

Data set [4] shares this target. As to the kind of experiment: filter; biphasic, Kd2 170 nM, mole fraction 0.65; TBSC, 37 C. To be noted: tags: supplied by Eli Lilly. Here is the method: as §1, §2
The target is the same in data set [5]. Nature of the data set: filter; biphasic, Kd2 170 nM, mole fraction 0.15; Table III prints SEQ 104, name matches SEQ 105; TBSC, 37 C. The following applies: tags: supplied by Eli Lilly. Here is the method: as §1, §2
For data set [6] the target is unchanged. Nature of the data set: filter; biphasic, Kd2 130 nM, mole fraction 0.40; TBSC, 37 C. To be noted: tags: supplied by Eli Lilly. Here is the method: as §1, §2
Data set [7] shares this target. Nature of the data set: filter; biphasic, Kd2 52 nM, mole fraction 0.35; TBSC, 37 C. To be noted: tags: supplied by Eli Lilly. Here is the method: as §1, §2
The target is the same in data set [8]. Nature of the data set: filter; biphasic, Kd2 110 nM, mole fraction 0.40; TBSC, 37 C. The following applies: tags: supplied by Eli Lilly. Here is the method:
as §1, §2

The target is the same in data set [9]. Nature of the data set: filter; biphasic, Kd2 310 nM, mole fraction 0.25; TBSC, 37 C. The following applies: tags: supplied by Eli Lilly. Here is the method: as §1, §2
The target is the same in data set [10]. As to the kind of experiment: filter; biphasic, Kd2 180 nM, mole fraction 0.45; TBSC, 37 C. To be noted: tags: supplied by Eli Lilly. Here is the method: as §1, §2
The target of data set [11] is pancreatic phospholipase A2 (bpPLA2) (Bos taurus, UniProt P00593 P00593:23-145). Nature of the data set: filter; specificity control, like random RNA; TBSC. Here is the method: (§3) The affinity of sPLA_2 ligands 2, 72, 80, 87, NN19 and NN19.15 (SEQ ID NOs.:11, 20, 53, 54, 64, and 117, respectively) for proteins other than sPLA_2 was determined by nitrocellulose partitioning (Tables IV and V). Like sPLA_2, hen egg white lysozyme, bFGF and elastase are small, highly cationic proteins. Bovine pancreatic PLA_2 is an evolutionarily and structurally related enzyme. […] Specificity is particularly well illustrated by the affinities for bovine pancreatic PLA_2 which is 10^4-fold less than that for human sPLA_2.
(§4) *Standard binding experiments were performed to the specified target protein in TBSC and K_d's is calculated by curve fitting. The ligands bind no better than randomized RNA (30N1) to lysozyme (hen egg-white), human basic fibroblast growth factor basic (bFGF) and bovine pancreatic PLA₂. The sPLA₂ K_d that of the high affinity species.

Data set [12] concerns the target basic fibroblast growth factor (bFGF) (Homo sapiens, UniProt P09038 P09038:143-288). As to the kind of experiment: filter; specificity control, like random RNA; TBSC. Here is the method:
as §3, §4

The target of data set [13] is lysozyme (egg white) (Gallus gallus, UniProt P00698 P00698:19-147). Nature of the data set: filter; specificity control, like random RNA; TBSC. The following applies: tags: 6x crystallized. Here is the method:
as §3, §4

The target of data set [14] is T1, secretory phospholipase A2 (sPLA2). As to the kind of experiment: filter; biphasic, Kd2 530 nM, mole fraction 0.40; TBSC, 37 C. The following applies: tags: supplied by Eli Lilly. Here is the method: as §1, §2
The target is the same in data set [15]. As to the kind of experiment: filter; biphasic, Kd2 1830 nM, mole fraction 0.50; TBSC, 37 C. To be noted: tags: supplied by Eli Lilly. Here is the method:
as §1, §2

The target is the same in data set [16]. As to the kind of experiment: filter; biphasic, Kd2 170 nM, mole fraction 0.30; TBSC, 37 C. The following applies: tags: supplied by Eli Lilly. Here is the method:
as §1, §2

The target is the same in data set [17]. Nature of the data set: filter; biphasic, Kd2 450 nM, mole fraction 0.35; TBSC, 37 C. The following applies: tags: supplied by Eli Lilly. Here is the method:
as §1, §2

The target is the same in data set [18]. As to the kind of experiment: filter; biphasic, Kd2 300 nM, mole fraction 0.40; TBSC, 37 C. The following applies: tags: supplied by Eli Lilly. Here is the method: as §1, §2
Data set [19] shares this target. Nature of the data set: filter; biphasic, Kd2 450 nM, mole fraction 0.50; TBSC, 37 C. The following applies: tags: supplied by Eli Lilly. Here is the method:
as §1, §2

For data set [20] the target is unchanged. Nature of the data set: filter; biphasic, Kd2 360 nM, mole fraction 0.40; TBSC, 37 C. To be noted: tags: supplied by Eli Lilly. Here is the method: as §1, §2

As a reminder, the Kd is the free concentration of one partner at which half of the binding sites on the other are occupied at equilibrium, for simple one-to-one binding. High values mean weaker binding, low ones tighter binding.

Where a chain is given by its changes, count along the chain named.

Sequence of lysozyme (egg white) (P00698 19-147, one chain of several): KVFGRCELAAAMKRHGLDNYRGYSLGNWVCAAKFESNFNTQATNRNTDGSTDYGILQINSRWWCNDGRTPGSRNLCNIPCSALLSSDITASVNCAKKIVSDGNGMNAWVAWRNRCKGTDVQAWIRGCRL
Sequence of basic fibroblast growth factor (bFGF) (P09038 143-288, one chain of several): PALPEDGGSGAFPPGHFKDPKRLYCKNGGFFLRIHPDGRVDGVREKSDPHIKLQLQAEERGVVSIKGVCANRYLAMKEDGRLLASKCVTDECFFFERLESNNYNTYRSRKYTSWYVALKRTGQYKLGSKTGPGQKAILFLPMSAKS
Sequence of pancreatic phospholipase A2 (bpPLA2) (P00593 23-145, one chain of several): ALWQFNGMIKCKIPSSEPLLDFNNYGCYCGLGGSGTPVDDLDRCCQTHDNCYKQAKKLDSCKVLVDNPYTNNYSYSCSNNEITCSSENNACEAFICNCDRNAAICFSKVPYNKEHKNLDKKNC

As to GGUCUCAUUGCUCGUCGCACGGCGUAACCUAUUUCGACAUGAG (ssRNA) [2.3], binding in data set [1] was put at a Kd of 2.6 nM.

B1: 4 (ssRNA)
RNA: GGGAGCUCAGAAUAAACGCUCAAUGUCUUACGGGUAAAGCCGAGAAAGUUUCCUUCGACAUGAGGCCCGGAUCCGGC
With B1, the Kd in [2] is 0.7 nM.

B2: 89 (ssRNA)
RNA: B1 RNA with U24A
B2: in [3], the Kd was found to be 2.5 nM.

B3: 35t (ssRNA)
RNA: GGGAGCUCAGAAUAAACGCUCAAGGCUGGGUCUUUUACAGGUAAAGCUGAGAAUUCGACAUGAGGCCCGGAUCCGGC
B3 yielded a Kd in [4] of 2.4 nM. GGGAAGACCUCUGCUUACAGCCCGGCUGAGACACUUCGACAUGAGGCC (ssRNA) [72.c] returned an equilibrium dissociation constant (Kd) in data set [5] of 4.6 nM.

B4: 96 (ssRNA)
RNA: GGGAGCUCAGAAUAAACGCUCAAGACCUCUGCUUACAGUUCGGCUGAGACACUUCGACAUGAGGCCCGGAUCCGGC
On to B4, for which the Kd in data set [6] was found to be 0.9 nM.

B5: 79 (ssRNA)
RNA: B4 RNA with U39C
In data set [7], B5 returned a Kd of 1.7 nM.

B6: 11t (ssRNA)
RNA: GGGAGCUCAGAAUAAACGCUCAACUUACGGGUAAAGCCGAGAAAAUGUAUUGCUUCGACAUGAGGCCCGGAUCCGGC
Take B6: in data set [8], binding was put at a Kd of 0.6 nM.

B7: 9t (ssRNA)
RNA: GGGAGCUCAGAAUAAACGCUCAACACGGGGGUGGGUGGGUGGCCGAGCGCUUGUUCGACAUGAGGCCCGGAUCCGGC
For B7, the dissociation constant Kd in data set [9] worked out at 39.4 nM.

B8: 2 (ssRNA)
RNA: GGGAGCUCAGAAUAAACGCUCAAUCUCAUUGCUCGUCGCACGGCGUAACCUAUUUCGACAUGAGGCCCGGAUCCGGC
For B8, the Kd was 1.7 nM in [10], 20000 nM in [11], 230 nM in data set [12] and 1700 nM in data set [13].

B9: 73t (ssRNA)
RNA: GGGAGCUCAGAAUAAACGCUCAACUUACAGUUCGGCUGAGAGAAGACGCAUACUUCGACAUGAGGCCCGGAUCCGGC
Take B9: in data set [14], the Kd came to 2.4 nM.

B10: 6t (ssRNA)
RNA: GGGAGCUCAGAAUAAACGCUCAAUGCCUCAUGCCAAUGUGGGAGGGUGGGUGGUUCGACAUGAGGCCCGGAUCCGGC
Turning to B10, in data set [15], binding was characterised by a dissociation constant (Kd) of 28 nM.

B11: 83t (ssRNA)
RNA: B10 RNA with U24C, U37C, G45C
In turn, B11 displayed a Kd in [16] of 10.5 nM.

B12: 86t (ssRNA)
RNA: B10 RNA with U24C, U39C
For B12, in [17], the Kd came to 2.8 nM.

B13: 80 (ssRNA)
RNA: GGGAGCUCAGAAUAAACGCUCAAGCUCUGGGAUGAUGCCCAGUGUCCAGCAUCUUCGACAUGAGGCCCGGAUCCGGC
Regarding B13, the equilibrium dissociation constant (Kd) was determined as 29000 nM in [11], 240 nM in data set [12], 2700 nM in data set [13] and 1.6 nM in data set [18].

B14: 87 (ssRNA)
RNA: B13 RNA with G42C
Regarding B14, the Kd came to 20000 nM in data set [11], 220 nM in [12], 2300 nM in [13] and 0.8 nM in [19].

B15: 72t.2c (ssRNA)
RNA: GGGAUAAACGCUCAACUUACAGUUCGGCUGAGACGAAGAUCGACCUUCGACAU
B15: binding in data set [20] was characterised by a dissociation constant (Kd) of 5 nM.
